Laboratory results published in patent publication US20210395379A1 (NUMAB THERAPEUTICS, published 2021).
Changes are numbered by the printed parent chain. Each block holds one molecule with its values, some of them ahead of it.

Tests used:
[1] = target: T1, human CD137 expressed on Jurkat cells (human, UniProt Q07011 24-255); experiment: Flow cytometry on CD137 expressing Jurkat cells, detection with APC-labelled goat anti-human IgG
[2] = target: T2, human Fc-tagged CD40 (AcroBiosystems, cat. CD0-H5253) (human, UniProt P25942 21-193); experiment: SPR (Biacore T200), Fc-tagged CD40 captured by anti-human Fc, scFv as analyte
T2 construct: also called human CD40; not shown: Fc tag
T2 sequence (P25942 21-193 limits assumed): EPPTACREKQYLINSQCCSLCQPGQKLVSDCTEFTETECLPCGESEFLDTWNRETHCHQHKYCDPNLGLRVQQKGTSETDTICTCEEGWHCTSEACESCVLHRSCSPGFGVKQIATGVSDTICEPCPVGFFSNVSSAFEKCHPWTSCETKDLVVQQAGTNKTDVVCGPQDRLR
Experimental: (§1) Binding of scFvs to human Fc-tagged CD40 (AcroBiosystems, cat. CD0-H5253) and human Fc-tagged OX40 (Acro-Biosystems, cat. OX0-H5255) was determined by SPR analysis on a T200 device (Biacore, GE Healthcare). In this experiment, Fc-tagged CD40 and OX40 were captured using the Human Antibody Capture kit from GE healthcare (cat. BR-1008-39). After each analyte injection cycle, the anti-human Fc-specific IgG was regenerated and new antigen was captured. The scFvs were injected as analyte using a high concentration of 180 nM of the analyte diluted in running buffer. Association and dissociation time were set to 300 s and 720 s, respectively. Obtained sensorgrams were fitted using the 1:1 binding model.

[3] = target: T3, human Fc-tagged OX40 (Acro-Biosystems, cat. OX0-H5255) (human, UniProt P43489 29-216); experiment: SPR (Biacore T200), Fc-tagged OX40 captured by anti-human Fc, scFv as analyte
T3 construct: also called human OX40; not shown: Fc tag
T3 sequence (looked up): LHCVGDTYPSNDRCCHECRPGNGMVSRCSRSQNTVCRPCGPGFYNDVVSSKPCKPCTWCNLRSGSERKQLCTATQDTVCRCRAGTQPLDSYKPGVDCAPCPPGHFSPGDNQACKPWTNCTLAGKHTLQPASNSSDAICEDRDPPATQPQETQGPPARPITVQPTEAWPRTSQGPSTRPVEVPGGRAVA
Experimental: as §1

[4] = target: T1, human CD137 expressed on Jurkat cells; experiment: flow cytometry on CD137 expressing Jurkat cells, detection with APC labelled protein L
Experimental: 50,000 CD137 expressing Jurkat cells (or as reference cell line Jurkat cells lacking CD137 expression) were distributed to round bottom non-tissue culture treated 96 well plates. Cells were washed twice with 100 μl PBS by centrifugation at 400×g for 5 min. […] After 1 h incubation at 4° C. on a nutating mixer, cells were washed 3 times with 100 μl staining buffer and centrifugation steps of 5 min at 400×g. […] Plates were incubated 1 h at 4° C. on a nutating mixer, then washed 3 times with 100 μl of staining buffer and resuspended in a final volume of 50 μl of staining buffer. Finally, APC signal of 20,000 events per well was analyzed by flow cytometry using a Novocyte flow cytometer system (ACEA Bioscience).

[5] = target: T4, cynomolgus monkey Fc-tagged CD137 (R&D Systems, cat. 9324-4B-100) (cynomolgus monkey, UniProt A9YYE7 24-186); experiment: SPR (Biacore T200), cynomolgus Fc-tagged CD137 captured by anti-human Fc, scFv as analyte
T4 construct: also called cynomolgus CD137; CD137-Fc chimeric protein (cynomolgus); not shown: the Fc tag (and any linker) of the bought chimera (R&D Systems, cat. 9324-4B-100)
T4 sequence (A9YYE7 entry or part of it limits assumed): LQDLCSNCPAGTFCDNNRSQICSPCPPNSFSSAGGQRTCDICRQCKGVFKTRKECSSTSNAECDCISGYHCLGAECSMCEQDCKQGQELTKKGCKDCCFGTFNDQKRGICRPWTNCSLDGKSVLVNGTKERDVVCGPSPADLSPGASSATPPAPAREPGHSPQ
Experimental: (§2) In this experiment, Fc tagged human CD137 (R&D Systems, cat. 838-4B-100) was captured using the Human Antibody Capture kit from GE healthcare (cat. BR-1008-39). After each analyte injection cycle, the anti-human Fc-specific IgG was regenerated and new antigen was captured. The scFvs were injected as analyte using a dose response multi-cycle kinetic assay over the captured CD137 with concentrations of the analyte ranging from 0.19 to 45 nM (three-fold dilutions steps) diluted in running buffer. Association and dissociation time were set to 300 s and 720 s, respectively. The obtained sensorgrams were fitted using the 1:1 binding model.
Cross-reactivity to cynomolgus CD137 was measured with cynomolgus monkey Fc-tagged CD137 (R&D Systems, cat. 9324-4B-100) in a similar assay as used to measure binding to human CD137.

[6] = target: T5, Fc tagged human CD137 (R&D Systems, cat. 838-4B-100) (human, UniProt Q07011 24-186); experiment: SPR (Biacore T200), Fc tagged human CD137 captured by anti-human Fc, scFv as analyte 0.19-45 nM
T5 construct: Bought Fc chimera; also called CD137 Fc chimera; human CD137 (tagged with Fc); not shown: Fc tag of the bought chimera
Experimental: as §2

EC50 (read off the curve) [1]: 0.06 µg/mL
Molecule: urelumab (antibody)

binding result [2]: no binding (tested: 180 nM)
binding result [3]: no binding (tested: 180 nM)
EC50 [4]: 3.99 µg/mL
Maximum binding (relative to urelumab) [4]: 18%
Kd [5]: 2.88 nM
koff [5]: 0.00267 s⁻¹
kon [5]: 927000 M⁻¹ s⁻¹
koff [6]: 0.00281 s⁻¹
kon [6]: 866000 M⁻¹ s⁻¹
B1: PRO1359 (38-27-A11 sc02) (scFv)
scFv: DIQMTQSPSSLSASVGDRVTITCQASQSISNRLAWYQQKPGKAPKLLIYSASTLASGVPSRFSGSGSGTDFTLTISSLQPEDFATYYCQSTYYGNDGNAFGTGTKVTVLGGGGGSGGGGSGGGGSGGGGSEVQLVESGGGLVQPGGSLRLSCAASGFSFSANYYPCWVRQAPGKGLEWIGCIYGGSSDITYDANWTKGRFTISRDNSKNTVYLQMNSLRAEDTAVYYCARSAWYSGWGGDLWGQGTLVTVSS
notes: VL-linker-VH, CDR graft, Vk1/VH3; also called anti-4-1BB scFv

binding result [2]: no binding (tested: 180 nM)
binding result [3]: no binding (tested: 180 nM)
EC50 [4]: 0.148 µg/mL
Maximum binding (relative to urelumab) [4]: 29%
Kd [5]: 0.24 nM
koff [5]: 0.000252 s⁻¹
kon [5]: 1.05e+06 M⁻¹ s⁻¹
koff [6]: 0.0003 s⁻¹
kon [6]: 1.28e+06 M⁻¹ s⁻¹
B2: PRO1360 (38-27-A11 sc03) (scFv)
scFv: B1 scFv with I2F, M4L, A43P, V132S, Y227F, Q244P
notes: VL-linker-VH, full graft, Vk1/VH3
